Numbering of substitutions follows the chain as printed.
T1: human B7-H4 on the cell surface (human, UniProt Q7Z7D3 25-282)
T1 sequence: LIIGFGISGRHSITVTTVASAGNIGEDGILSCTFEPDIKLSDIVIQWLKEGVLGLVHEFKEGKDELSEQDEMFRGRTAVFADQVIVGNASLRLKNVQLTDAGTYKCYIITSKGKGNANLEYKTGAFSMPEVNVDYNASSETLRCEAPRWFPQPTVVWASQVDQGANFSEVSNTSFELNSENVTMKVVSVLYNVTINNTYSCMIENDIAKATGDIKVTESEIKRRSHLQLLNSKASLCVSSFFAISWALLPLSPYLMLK

T2: cynomolgus monkey B7-H4 (recombinant, BLI) (cynomolgus monkey, UniProt Q7Z7D3 25-259 (human entry))
T2 construct: also called Cynomolgus B7-H4
T2 sequence: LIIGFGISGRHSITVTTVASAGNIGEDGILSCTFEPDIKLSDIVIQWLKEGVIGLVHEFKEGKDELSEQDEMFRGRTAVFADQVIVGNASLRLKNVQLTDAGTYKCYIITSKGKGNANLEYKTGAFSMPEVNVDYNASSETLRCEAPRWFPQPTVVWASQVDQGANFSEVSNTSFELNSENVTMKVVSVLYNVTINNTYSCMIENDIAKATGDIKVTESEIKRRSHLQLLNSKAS

T3: mouse B7-H4 (recombinant, BLI) (mouse, UniProt Q7TSP5 29-256, limits assumed)
T3 construct: also called murine B7-H4
T3 sequence: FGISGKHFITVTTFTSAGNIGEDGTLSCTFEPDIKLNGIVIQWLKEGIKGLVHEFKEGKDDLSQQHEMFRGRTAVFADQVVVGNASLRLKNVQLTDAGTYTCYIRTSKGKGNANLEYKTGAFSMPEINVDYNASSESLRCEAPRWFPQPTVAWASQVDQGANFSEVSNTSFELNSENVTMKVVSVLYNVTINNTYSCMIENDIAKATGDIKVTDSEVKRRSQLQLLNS

T4: cynomolgus monkey B7-H4 on the cell surface (cynomolgus monkey, UniProt Q7Z7D3 25-282 (human entry))
T4 construct: full-length, on transfected HEK293T cells
T4 chain: T1 sequence with L53I, F242L, S252A

T5: mouse B7-H4 on the cell surface (mouse, UniProt Q7TSP5 25-257)
T5 construct: full-length, on transfected HEK293T cells
T5 sequence: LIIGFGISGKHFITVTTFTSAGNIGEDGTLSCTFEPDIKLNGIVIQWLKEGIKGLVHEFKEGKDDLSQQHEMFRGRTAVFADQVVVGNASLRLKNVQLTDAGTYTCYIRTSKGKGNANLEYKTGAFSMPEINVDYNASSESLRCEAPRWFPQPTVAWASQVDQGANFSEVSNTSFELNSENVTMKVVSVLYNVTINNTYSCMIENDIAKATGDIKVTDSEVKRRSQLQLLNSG

B1: B7-H4 antibody 15483 (antibody, human IgG1, kappa, V domains shown)
VH: QVQLQESGPGLVKPSQTLSLTCTVSGGSISSGGYYWSWIRQHPGKGLEWIGNIYYSGSTYYNPSLKSRVTISVDTSKNQFSLKLSSVTAADTAVYYCARGLSTIDEAFDPWGQGTLVTVSS
VL: not shown
notes: human IgG1/kappa
B2: B7-H4 antibody 15489 (antibody, human IgG1, kappa, V domains shown)
VH: QVQLQESGPGLVKPSETLSLTCTVSGGSISSYYWSWIRQPPGKGLEWIGYIYSSGSTNYNPSLKSRVTISVDTSKNQFSLKLSSVTAADTAVYYCARGSGQYAAPDYGMDVWGQGTTVTVSS
VL: DIQMTQSPSTLSASVGDRVTITCRASQSISSWLAWYQQKPGKAPKLLIYKASSLESGVPSRFSGSGSGTEFTLTISSLQPDDFATYYCQQDNSFPFTFGGGTKVEIKR
notes: human IgG1/kappa
B3: B7-H4 antibody 20513 (antibody, human IgG1, kappa, V domains shown)
VH: B1 VH with V2L, Q16E, S31D, G33S, K66R, I71M
VL: not shown
notes: human IgG1/kappa
B4: B7-H4 antibody 20506 (antibody, V domains shown)
VH: QLQLQESGPGLVKPSETLSLTCTASGGSISHGGYYWSWIRQHPGKGLEWIGNIYYSGSTYYNPSLKSRVTMSVDTSKNQFSLKLSSVTAADTAVYYCARESSTISADFDLWGRGTLVTVSS
VL: DIQMTQSPSSVSASVGDRVTITCRASQGISRWLAWYQQKPGKAPKLLIYAASSLQSGVPSRFSGSGSGTDFTLTISSLQPEDFATYYCQQAHTFPYTFGGGTKVEIKR
notes: human IgG1/kappa
B5: B7-H4 antibody 20496 (antibody, human IgG1, kappa, V domains shown)
VH: QLQLQESGPGLVKPSETLSLTCTVSGGSISSSVYYWSWIRQPPGKGLEWIGSILVSGSTYYNPSLKSRVTISVDTSKNQFSLKLSSVTAADTAVYYCARAVSFLDVWGQGTMVIVSS
VL: DIQMTQSPSSLSASVGDRVTITCRASQSISSYLNWYQQKPGKAPKLLIYGASSLQSGVPSRFSGSGSGTDFTLTISSLQPEDFATYYCQQSYDPPWTFGGGTKVEIKR
notes: human IgG1/kappa
B6: B7-H4 antibody 20516 (antibody, human IgG1, kappa, V domains shown)
VH: B2 VH with S30I, S35G, N58S, Q101L, M109L
VL: B2 VL
notes: human IgG1/kappa
B7: B7-H4 antibody 15472 (antibody, human IgG1, kappa, V domains shown)
VH: EVQLLESGGGLVQPGGSLRLSCAASGFTFSSYAMSWVRQAPGKGLEWVSTISGSGGSTYYADSVKGRFTISRDNSKNTLYLQMNSLRAEDTAVYYCARGAGHYDLVGRYWGQGTLVTVSS
VL: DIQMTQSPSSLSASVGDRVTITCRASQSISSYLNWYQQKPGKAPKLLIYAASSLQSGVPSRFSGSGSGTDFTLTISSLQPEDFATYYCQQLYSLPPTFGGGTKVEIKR
notes: human IgG1/kappa
B8: B7-H4 antibody 22216 (antibody, human IgG1, kappa, V domains shown)
VH: B1 VH with S31D, G33S, K66R, I71M
VL: B2 VL with Q27K, K50E, E55H, F94Y, F96Y
notes: human IgG1/kappa
B9: B7-H4 antibody 20502 (antibody, V domains shown)
VH: QLQLQESGPGLVKPSETLSLTCTVSGGSIKSGSYYWGWIRQPPGKGLEWIGNIYYSGSTYYNPSLRSRVTISVDTSKNQFSLKLSSVTAADTAVYYCAREGSYPNQFDPWGQGTLVTVSS
VL: EIVMTQSPATLSVSPGERATLSCRASQSVSSNLAWYQQKPGQAPRLLIYGASTRATGIPARFSGSGSGTEFTLTISSLQSEDFAVYYCQQYHSFPFTFGGGTKVEIKR
notes: human IgG1/kappa
B10: B7-H4 antibody 22208 (antibody, human IgG1, kappa, V domains shown)
VH: B9 VH with Y34H, R66K, I71M, Q106W
VL: B9 VL with S31T, G50D, T53A, A55V
notes: human IgG1/kappa

What follows are binders tested against T1, human B7-H4 on the cell surface (assay: cell-based or functional assay).

| Donor 1 Max IFNγ | Donor 2 Max IFNγ | Donor 3 Max IFNγ | Donor 4 Max IFNγ | aAPC Assay EC50 (IFNγ production) | Binder |
| --- | --- | --- | --- | --- | --- |
| 93.2 pg/mL | 87.8 pg/mL | 1380 pg/mL | 939 pg/mL | 729 nM | B1 |
| 82.5 pg/mL | 96.6 pg/mL | 1130 pg/mL | 800 pg/mL | 291 nM | B2 |

Target: T1, human B7-H4 on the cell surface
Assay: cell-based or functional assay
Remark: another data set of the same source

| Donor 1 Max IFNγ | Donor 2 Max IFNγ | Donor 3 Max IFNγ | Donor 4 Max IFNγ | aAPC Assay EC50 (IFNγ production) | Binder |
| --- | --- | --- | --- | --- | --- |
| 659 pg/mL | 240 pg/mL | 91.1 pg/mL | 1630 pg/mL | 1.16 nM | B3 |
| 981 pg/mL | 259 pg/mL | 86.1 pg/mL | 2300 pg/mL | 1.25 nM | B4 |
| 186 pg/mL | – | – | – | – | B5 |
| – | 441 pg/mL | – | – | – | B6 |

Each binder was assayed against T1, human B7-H4 on the cell surface (assay: flow cytometry, SK-BR-3 cells).
Experimental: (§1) Following incubation, cells were pelleted, washed and incubated with a secondary labeling antibody and samples were acquired on a flow cytometer. Data was analyzed using the FlowJo software and MFI was plotted vs. antibody concentration. The EC50 cell binding potency was calculated using nonlinear regression curve fit (GraphPad Prism).

| EC50 | Binder |
| --- | --- |
| 14.8 nM | B1 |
| 8.86 nM | B7 |
| 7.6 nM | B5 |
| 31.7 nM | B2 |

These binders were tested against T6, recombinant human B7-H4-huIgG1 (human) (assay: BLI, antigen on Protein A tips;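 further: Anti-B7-H4 antibodies assessed for affinity toward the B7-H4 extracellular domain using biolayer interferometry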).
T6 construct: also called B7-H4-extracellular domain (ECD)
Experimental: (§2) Binding affinities of anti-B7-H4 antibodies to B7-H4-extracellular domain (ECD) were determined by biolayer interferometry (BLI). […] Anti-B7-H4 antibodies were then evaluated for binding.

| Kd | koff | kon | Binder |
| --- | --- | --- | --- |
| 3.98 nM | 0.0018 s⁻¹ | 453000 M⁻¹ s⁻¹ | B3 |
| 1.47 nM | 0.000359 s⁻¹ | 245000 M⁻¹ s⁻¹ | B8 |
| 1.2 nM | 0.00115 s⁻¹ | 936000 M⁻¹ s⁻¹ | B9 |
| 5.67 nM | 0.00104 s⁻¹ | 184000 M⁻¹ s⁻¹ | B10 |
| 1.69 nM | 0.000746 s⁻¹ | 441000 M⁻¹ s⁻¹ | B4 |
| 7.11 nM | 0.00497 s⁻¹ | 700000 M⁻¹ s⁻¹ | B7 |
| 0.805 nM | 0.000555 s⁻¹ | 689000 M⁻¹ s⁻¹ | B5 |
| 63.7 nM | – | – | B2 |
| 18 nM | 0.00738 s⁻¹ | 410000 M⁻¹ s⁻¹ | B6 |

Each binder was assayed against T2, cynomolgus monkey B7-H4 (recombinant, …) (assay: BLI, antigen on Protein A tips;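 further: Anti-B7-H4 antibodies assessed for affinity toward the B7-H4 extracellular domain using biolayer interferometry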).
Experimental: as §2

| Kd | koff | kon | Binder |
| --- | --- | --- | --- |
| 3.67 nM | 0.0018 s⁻¹ | 491000 M⁻¹ s⁻¹ | B3 |
| 108 nM | – | – | B1 |
| 1.47 nM | 0.000359 s⁻¹ | 245000 M⁻¹ s⁻¹ | B8 |
| 1.2 nM | 0.00112 s⁻¹ | 962000 M⁻¹ s⁻¹ | B9 |
| 5.44 nM | 0.00108 s⁻¹ | 199000 M⁻¹ s⁻¹ | B10 |
| 1.48 nM | 0.000678 s⁻¹ | 458000 M⁻¹ s⁻¹ | B4 |
| 7.8 nM | 0.00582 s⁻¹ | 746000 M⁻¹ s⁻¹ | B7 |
| 0.721 nM | 0.000569 s⁻¹ | 790000 M⁻¹ s⁻¹ | B5 |
| 72.1 nM | – | – | B2 |
| 17.6 nM | 0.00783 s⁻¹ | 445000 M⁻¹ s⁻¹ | B6 |

The binders below were run against T3, mouse B7-H4 (recombinant, BLI) (assay: BLI, antigen on Protein A tips;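 further: Anti-B7-H4 antibodies assessed for affinity toward the B7-H4 extracellular domain using biolayer interferometry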).
Experimental: as §2

| Kd | koff | kon | Binder |
| --- | --- | --- | --- |
| 4.57 nM | 0.00236 s⁻¹ | 517000 M⁻¹ s⁻¹ | B3 |
| 263 nM | – | – | B1 |
| 1.47 nM | 0.000359 s⁻¹ | 245000 M⁻¹ s⁻¹ | B8 |
| 3.4 nM | 0.00213 s⁻¹ | 632000 M⁻¹ s⁻¹ | B9 |
| 16.7 nM | 0.00167 s⁻¹ | 99500 M⁻¹ s⁻¹ | B10 |
| 3.53 nM | 0.00164 s⁻¹ | 466000 M⁻¹ s⁻¹ | B4 |
| 38 nM | 0.016 s⁻¹ | 422000 M⁻¹ s⁻¹ | B7 |
| 24.6 nM | 0.0171 s⁻¹ | 692000 M⁻¹ s⁻¹ | B5 |
| 201 nM | – | – | B2 |
| 41.4 nM | 0.0165 s⁻¹ | 398000 M⁻¹ s⁻¹ | B6 |

Target: T4, cynomolgus monkey B7-H4 on the cell …
Assay: flow cytometry, transfected 293 cells
Experimental: as §1

| EC50 | Binder |
| --- | --- |
| 7.91 nM | B5 |

The binders below were run against T5, mouse B7-H4 on the cell surface (assay: flow cytometry, transfected 293 cells).
Experimental: as §1

| EC50 | Binder |
| --- | --- |
| 8.82 nM | B1 |
| 6.7 nM | B5 |
| 17.5 nM | B2 |

The binders below were run against T1, human B7-H4 on the cell surface (assay: flow cytometry, 100 nM, transfected HEK293T).
Experimental: (§3) HEK293T cell lines were transfected to express full-length human, cynomolgus monkey, mouse, or rat B7-H4. In addition, the endogenous human B7-H4 expressing SK-BR-3 breast cancer cell line was used to assess the ability of the antibodies to bind B7-H4 expressed on the cell surface. 1×10⁵ parental HEK293T or transfected HEK293T cell lines were incubated with 100 nM of the B7-H4 antibodies. Following incubation, cells were pelleted, washed, and incubated with a secondary labeling antibody, and samples were acquired on a flow cytometer. Fold binding over the parental cell line (FOP) was calculated as follows: MFI transfected HKE293T cells/MFI parental HEK293T cells.

| FOP (fold binding over the parental cell line) | Binder |
| --- | --- |
| 580 fold | B7 |
| 179 fold | B5 |

Target: T4, cynomolgus monkey B7-H4 on the cell …
Assay: flow cytometry, 100 nM, transfected HEK293T
Experimental: as §3

| FOP (fold binding over the parental cell line) | Binder |
| --- | --- |
| 1280 fold | B7 |
| 758 fold | B5 |

These binders were tested against T5, mouse B7-H4 on the cell surface (assay: flow cytometry, 100 nM, transfected HEK293T).
Experimental: as §3

| FOP (fold binding over the parental cell line) | Binder |
| --- | --- |
| 685 fold | B7 |
| 604 fold | B5 |

What follows are binders tested against T7, B7-H4 IgV-huIgG1 (human) (assay: SPR, antibody captured by anti-human Fab, antigen in flow).
T7 construct: also called N-terminal domain of human B7-H4
Experimental: Briefly, anti-human Fab antibody was immobilized on a carboxyl-derivatized SPR chip surface, and anti-B7-H4 antibodies were captured on the resulting surface at 5 ug/ml for 30 seconds.

| Kd | koff | kon | Binder |
| --- | --- | --- | --- |
| 18.4 nM | – | – | B1 |
| 2.03 nM | 0.000361 s⁻¹ | 178000 M⁻¹ s⁻¹ | B9 |
| 23.7 nM | – | – | B2 |
